Results reported in paper doi:10.1101/2021.01.29.428852 (bioRxiv, 2021).

Target: LCMV clone 13 nucleocapsid protein (NP), purified recombinant (Lymphocytic choriomeningitis virus, …, UniProt P09992, strain)
Assay: ELISA

B1: most expanded antibody variant of the NP-specific, second most expanded IgG clone (antibody, V domains shown)
VH: EVQLQQSGPELVKPGASVKMSCKASGYTFTDYNMHWVKQSHGKSLEWIGYINPNNGGTSYNQKFKGKATLTVNKSSSTAYMELRSLTSEDSAVYYCAREGGYWYFDVWGTGTTVTVSS
VL: DIVMTQSHKFMSTSVGDRVSITCKASQDVSTAVAWYQQKPGQSPKLLIYWASTRHTGVPDRFTGSGSGTDYTLTISSVQAEDLALYYCQQHYSTPFTFGSGTKLEIK
binding result: binds
